The data set is described as follows: protease stability score; higher = more stable; yeast display proteolysis, trypsin and chymotrypsin.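 Further: log10 excess protease needed over predicted unfolded state with 0 meaning unfolded.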

Turning to “EEREVEEMQKILQHGDPKEFEDNMDPNADVEIGDQQYRGRETIAQVLQKFRDQIDHRHIEEVHIHGDHAVIDVVATVNGQDLKYIIVVKVENGKLKSARLQATDPRVKHRMQEVYE”, the protease stability score was 0.32.

In turn, “EERLQELAERWWKARRTGDPHKIRDLLDKDVRVEYGNKSIHGRENIAHEIVRQLKHLRLDEKVERIDRSNGHVRATLSVTVNINGQPYTYRFELRIRAHNGKVKKIELRMPEEVVRRLDT” showed a protease stability score of 1.73.

For the sequence “EERQQELAKTFMEAVQSNDTTQLKRMFDKHAKVTVGDKTVSGREDASKWLSKLHKESRVQLRDVKVEVSGNKIDIKVRFEVQHNGKPREVTREMEMTFHNGKIKDLRATRTE”, the protease stability score came to 0.394.

Turning to “EERVNSVAEQFLDAVHTGDPNRVREQMDKDARMHVGDTTLHGRENMANHWKTLLDEMRITFHDYRIRVTGEEVEIRADVQYNHNGRPKRRVLTYTVEADNGKIHNWKVQEDS”, the protease stability score worked out at 0.472.

Consider “EERVQKMLEDAMRTNDEVELIKSAPPNAKVVVGDKKIKGHEEAHRWAVRFKEQVDHTEIKHLDINGDKVSLDFSIVINGKKIRVVVKVTATNGKVREVHVQATSEDDQEQLKRDIK”, for which the protease stability score was determined as 0.652.

For the sequence “EESAIERLKEAMKAFDHGDEDEWRQQFDKNARVQIGDKSVRGRDNMAKQIKKEKEKMRVEVKLESVHVHNGHVTADADYKEQKNGRPTSSRFQLHATFKGDKFKNMVWHKDS”, the protease stability score was -0.422.

In turn, “EESLEHIVRTMLEQIRRGDPRDLKEMFPENARIEYGDRSIHGREEYAKTMEHKRRQARYHFQVKSIRNNGNKVELVMEVEDNHNGNPSTRRVKLTIVFHNGRIQNVEQTNKP” gave a protease stability score of 1.03.

For “EESLIRLATLFMRAMETGDPKQANDLVDPNARFKIGDSVINGRERFNEWLKDLKEEMSVHYRVEHMHAEGDRVEVDFVVVYNVDGRPQRMRVKLEADLSNGRMRNVTLRFPSEEEKKIKK”, the protease stability score was determined as 0.525.

Regarding “EESVIKRIHQLMESNDWDQLVRQMDEDAKVEIGNFRVEGREEAEDWARKVKKQVDHLEVEDIQIRGNKVEVTMNVQVNGKTVRFDLVMEVRNGRVTSMSARFRSEDDVKIMEEMLK”, the protease stability score came to 1.15.

“EHELERQASKFAQLLRTNDFEKLLEMFDENARIEVGDKFVQGRDRIKKKLERDKTEMNRRYEDIKFTANGNTLNIKVIFTENHNGKPKRTVQLILITFRNGRIKRVEVRDDG” yielded a protease stability score of -0.065.

For the sequence “EHENVRLARSLIDALQQNNPQQAQENADKDVQYEVGEKRIHGREQYSDTMRKNKEQMEFRVHSVDMDEHNGRVTVNLTFIESTNGDPKQDRANLVIEFHNGRIQHVRMSKDG”, the protease stability score was -0.268.

With “EHEQSKLMEHLLRIVETGDDDEFRKNADPNVKFVYGDKEYDGREEAAKALREIKTELRFQLNDVEIRVENGVIEINYDFTANHNGRPQRRTQRATAEYDNGKLKSWSVRDDG”, the protease stability score is -0.172.

“EKEAKTLAHHVMEALEKNDPDQMDEQLDENARVQVGDREVHGREEVNKQIKRLKKHAHFEIESVTLDVQGDKVDAQYTMRADVNGKPWRDHVTVEIHVRNGRIKELRFRMDPQRLRDFKK” displayed a protease stability score of 0.72.

In turn, “EKEDLQQIARDMAKAVVSGDKEQMRRLADENARAQIGDKTLHGREKLSELIKRIRDRVDHLRLVDVRQDGDQIQVYVDLVVNGRKRRFTIEAEAHNGHIHSVTFDPRAKEFLDS” showed a protease stability score of 1.79.

In the case of “EKEEVKKAVEAFNENDEDELRDLVDENVKVVIGEKDYTGRETYWQFLRRMHEQIDHMHVKSVSVSNGVLRMDVEVVFNGRNVRFTIEVQAHDGQIKRVHYQARSEEQHKEFLKMLK”, the protease stability score was 1.58.

“EKEIVNNFKDWVRALTTGDEDRLRNYADPNAQFVVGEKRFHGMDDYVEDMRRRRTEIRVEIRVHHMNSTGEKIEIHAEQTHEHNGKPETHEFKMKAEVHNGRHKSVTQHDDG” returned a protease stability score of 0.201.

“EKENVQSWLEAWNALRQGDEKRVEQLVDPNARMQVGDKKVEGMTRHVHKEVRKMKEIRVELDLKTVDTQGDHAVVKFRESRNHNGQPREQDVVVRMRAHNGRVQEVNVHEVS” gave a protease stability score of 0.028.

“EKEQKERLEEAQHARESGDTERLKDLFDENVQVEVGDKRVNGMEKFVKDEVKKQRDLRISVTYTEMRNDPNHVDITVEVVEDKNGEPQRRVLEINIEYENGRARMMRVRRVQ”: the protease stability score was determined as 1.1.

With “EKEVMDTLVKIVNEGNFEDLAKMADKDVQVRIGNKNLHGKEQLQKFMERFTRQADHIRVHRYQFSNGRFQFDFVIVVNGKRFRVTMHVEVSNGRIKKLVINVTDEDAEKVLREAYG”, the protease stability score was 1.38.

Turning to “EKEVVELAERFIDALQTNNPDQAEENVDENVKFQYGDKSIKGRDTWNRELKKTLRDQRIQFRHVEIRSDGDKAHITAEFQVTHNGQPDKRRYKMTVEVRNGTIQRVTVQQHR”, the protease stability score is 0.17.

With “EKHVMTRITQYERNVQNGDEDTLNEMVDKDAKINIGDKTWHGMHNAAKDWKRQKDEMRLDYRSIHVTVQGDTVRIDQVVAVERNGKPSHDRNVQIWHEDNGKVKQVEQHKRP”, the protease stability score is -0.216.

Take “EKSIVEFFKKWVTAQRDGDPRQHARYIDPNARLQVGDRVVNGREQAKDDQHKKRKEIKVDMRIKSISASNGTLEVNFREKVDVNGRPITREYRFRFEVRNGRITSLSNQVDKEEQKKLKK”: the protease stability score was determined as 0.157.

As for “ENHVMNNAEKYLRLLEKGDEEELVKMADPNAKFRIGDKHVHGMESFADDLFRKQKEIRMEINIKHYEVQGDHVTIKAEQEKQHDGRPRRDTNKIIMQVHNGKIKQVTFTSDG”, the protease stability score is -0.222.

“EQDQIRRLKTFIKIIDHNNPSKVRELLDKDVHIDIGDKVIRGREEYADEIHKLQKEMRVKLQVDDIKDHGEHVHFTARWYARVNGRPRTNEIHVQARAHNGHVTSIKVHMDPRVLKEMRS” had a protease stability score of -0.027.

As to “EQELRKKATEMLKVVQEGDEDRLVEYADPNVRVQVGDKVLHGQEDLRKFVQRLTKESRIHLKHVDIEVHGNKIDITVEADVEHNGRPSTDTFSMRVEMENGRAKFIQVRTSK”, the protease stability score stood at 1.39.

As for “EQEVVHLAHRFIEAVQHNSTEDANKNVDPNAKFRVGDHVVNGREEVNEKVRKDHEKIRLQIRSVTLEDQGDKVEIRMDVEFDVNGKPLHHNLKMTVEAHNGKIVQLDNQMDPTELKELKQ”, the protease stability score is -0.152.

Consider “EQTFVHEFIKNVQRNNEHELKKLIDPNAKVVVGNKTFQGREQINSQLKRFKDQVDEFHVDTYHDKGDKAVIDYVRVVDGQRVHYRLIITAENGKVKSMELHVTDPEQQKTIERVLD”, for which the protease stability score was determined as 1.33.

On to “ERDSLKHVAREMEKNNFDEMLHNADKDVEIHYGNRSVHGHKRAQSFWERLKSRVDHISFKSYSINNGRIVMSFKVVIDGQDIEVHISIEVENGTIKHVQFQATSEEIEKLLEKLMD”, for which the protease stability score was found to be 1.36.

On to “ERELVSIAQDILHALEHGDPQQFRDLVDPNAKFKVGDHEWHGRESAANEYAKEQRKMNNKYDRVTWDNNGDHIRARFNWVNHSNGEPKRKQATQELVLHNGRLVSMKQDDTQ”, for which the protease stability score is -0.052.

In turn, “ERERNQKLAEIFAQAVETGDPEQAQKMAPPDVKAQVGDHQFRGREEIHKMIETIRRRADHARLKDMTVDGDKITIVVQFNVNGKEVNVVFHITVRNGVATEIELRSK” had a protease stability score of 1.26.

Take “EREVVQEAAKAINSNDFRRLSELMDKDVKMQYGDKTLSGREEVETLLKSLHEQIDTFTVDHYHVEGNKAEVDARFHFNGKRLRMHLYAVAHNGRIQEMKIQATTEHQQEELSRLWR”: the protease stability score was 0.613.

The sequence “ESELDKQAEQIVRVLRTGDPEKVADNAPEDAELIIGDKTYHGREQIRDWVHTVNKQMRIQWDEFDVKVKGDKAKVEADVVYDVNGTPVEDKIVLIFVIHNGRVHAVHFDFDPEVWRSMES” displayed a protease stability score of 0.569.

Regarding “ETEELHKMTELIDNMQRGNPQKFNEMVDPNAQFEVGDKTIRGREELSKELHRKRREMRRSLRSVKVRLSGNHFDIRVTFRETHNGQPDDRRQRIVIIVSNGRIKSVRVDEDG”, the protease stability score was 0.

The sequence “ETHVINRAIEAARHGDEDTLSKLADENAHVSVGDKEFHGREQVKNALKDWHDQVDTFEMKKVEVRGNKADVKIKVVVNGRDMTMRMEINAKGESIREINFSYRDERAKHHAQNAQG” had a protease stability score of 0.169.

“KEEDIVKVAKKLAKIVEEGNPDELKKLLSPDLEVKYGDKERHGADELVKVLKKLLRKGVRIQVKELQVEGNTATTVLEYQHGDKKHDVEIKAKLTGGRLKKLEVRFSPKAQEIVTQG”: the protease stability score came out at 2.02.

The sequence “KEEDVEKVAKRLITLVQEGNVDVMRKYLAPDVEVQYGDVEVKGPDQVVKHVRDLRRQGYRVQLKEVQVEGNTAETVLDYQAGDQKYTATVKAQVKGGVLKRATVKASPEMKKVVKAG” showed a protease stability score of 1.38.

“KEETVETLWKQMVEAVQKNNEEQLKKLGKDDVKVEYGGKKYEGTEQMATQLKKFMDLGAKFELKRYKVEGNHVEADIQVHVGGKTVHVTVRVEYDGGKLKKVQVHVSEEAEEAYKKG” came in with a protease stability score of 1.24.

“KEETVKTLWERMVEAVQKGDKEKVKKLGKDNVNARYNGKEYQGREELAKMLDKFKRKGAEFELKQVHVEGNTVKAEIEVHAAGTTQHVEVEAKYDGGQVEEVVVKISEEVQEMYKKG” had a protease stability score of 0.551.

As for “NEEQAKRLAEKWIRAVENGNVDELRKLGKPDMEVVAVNEKAKGVDTVHKYMKKFTDRGVELKVDRAKNTGGRVRYTVRARYGGQELTAEVVIDIKDGKVDKVEFRVDERQAQYVLRG”, the protease stability score came out at 0.812.

In turn, “NEEQLERVVKKWMEAVENADSKKVKELLKPDAEVQFGNRTVKGVDELVKYVKKFMDMGVELEVKEHKVEGGRARYQVVATYGGQTVTAQLTIQAKNGKIEKIEFRDNEEVQTLEKQG” registered a protease stability score of 0.988.

For “REEDVEKVIRTLLQAVHEGNPDKIRKYLKPDVEVQYADQKFKGPDEIMKLMRRMVRKGYRVQIKEQHVEGDTATTRADYQMGDKQVTVEVTAEAENGKLKHAEIKMSPQFEEIVKKG”, the protease stability score is 1.49.

For the sequence “SEEELRKVVEKLLTYVIEGNPDDVKKYISPNVQVRYFDKTVQGRDEVMKFLRRAKKHGYRLQAKHVQLEGDRATTELDYQAGDQEATVRVEATVNGGRLEKLEVRDSPKVKKVLKDG”, the protease stability score stood at 1.56.

The sequence “SEEQVEKLVKVMFRAVQNGNKDEVKKYGKSSGQFVFGSDRVEGVDQYVKKLKEVHDRGVQFEFKKFQVKDDTVTMETEVHYGNKTFRVTAQAKYDGGTLDRARVEISEEAKEAYKQG” returned a protease stability score of 0.368.

On to “SEERAKKVAKKLMEAFVKGNKDDAKDALQEDVQLHIAGTTYHGPKAVEKLIEFWQRVGVEVKVQEVRVKGNHVEIQTQVHLGDNTTTVRYKIQVEGDKVKKLQLNFSEEVFKQAKDG”, for which the protease stability score is 1.76.

Consider “TEEDVLKVLETLMKAFFDGNPKEVKEMGKEDVKFQVGDQEVRGVDQMTKRVKEYRDQGIEFHLKRYKVEGDQVTAEAEVVMGDKKARVTAHYKADDGRVDETRVEMSDEAKKLFKHG”, for which the protease stability score was found to be 0.432.

Source of the values: the NTF2 design screens of Basanta et al. (2020).
